In patent publication US20170362314A1 (CANCER RESEARCH TECHNOLOGY, published 2017):
Values belong to the binder of their own block, whether it stands above or below them.

Columns and labels:
[1] = biological target: human CXCL12 (soluble ligand in the cell migration assays) (human, UniProt P48061-2 22-89, limits assumed); experiment: cell-based or functional assay
[2] = biological target: T1, biotinylated CXCL12 (synthesised 68 amino acid CXCL12) (human, UniProt P48061 22-89, biotinylated (site not stated)); experiment: SPR: Fab over biotinylated CXCL12 on a streptavidin chip, two-state binding model
T1 construct: also called SDF-1
Description: (§1) FIG. 3. Affinity measurement of anti-CXCL12 antibodies using SPR A) Sensograms of multiple concentrations of lead and parental anti-CXCL12 Fabs binding to biotinylated CXCL12 immobilised on a streptavidin chip (carboxymethylated dextran matrix pre-immobilised with streptavidin). […] The equilibrium dissociation constant (KD) of the parent clone 093_2D06 was calculated using steady state binding model due to its very fast off-rate. […] The binding constants of these antibodies were determined using two-state binding model. Biacore T100 evaluation software was used for all calculations.
(§2) The lead anti-CXCL12 antibodies and their parent clones were subjected to a full kinetic analysis to determine the improvement in binding constants after affinity maturation. The binding of the Fab antibodies to biotinylated CXCL12 immobilised on a streptavidin chip was analysed using SPR (FIG. 3). Equilibrium dissociation constants (KD) of these antibodies were determined using a binding model appropriate for each binding interaction (FIGS. 3B and C). […] Such binding profiles are generally associated with binding interactions that involve antibody (or any other analyte) induced conformational change of the ligand resulting in a two-step binding. […]

[3] = biological target: T1, biotinylated CXCL12 (synthesised 68 …); experiment: affinity constant for human CXCL12, Fab format; method not restated; comparison with WO 2008/018641; method not restated
[4] = biological target: T1, biotinylated CXCL12 (synthesised 68 …); experiment: SPR (Biacore T100): Fab over biotinylated CXCL12 on a streptavidin chip, two-state binding model; SPR, two-state binding model
Description: as §1, §2

[5] = biological target: T1, biotinylated CXCL12 (synthesised 68 …); experiment: SPR (Biacore T100), Fab over biotinylated CXCL12 immobilised on a streptavidin chip, two-state binding model [panel C table]
Description: as §1, §2

[6] = biological target: T1, biotinylated CXCL12 (synthesised 68 …); experiment: SPR (Biacore T100), Fab over biotinylated CXCL12 immobilised on a streptavidin chip, two-state binding model [Continued) (panel C table]
Description: as §1, §2

[7] = biological target: T1, biotinylated CXCL12 (synthesised 68 …); experiment: SPR: Fab over biotinylated CXCL12 on a streptavidin chip
Description: as §1, §2

[8] = biological target: T1, biotinylated CXCL12 (synthesised 68 …); experiment: SPR (Biacore T100), Fab over biotinylated CXCL12 immobilised on a streptavidin chip, 1:1 Langmuir binding model [panel B table]
Description: as §1, §2

[9] = biological target: T1, biotinylated CXCL12 (synthesised 68 …); experiment: SPR (Biacore T100), Fab over biotinylated CXCL12 immobilised on a streptavidin chip, 1:1 Langmuir binding model [Continued) (panel B table]
Description: as §1, §2

[10] = biological target: T1, biotinylated CXCL12 (synthesised 68 …); experiment: SPR (Biacore T100): Fab over biotinylated CXCL12 on a streptavidin chip, 1:1 Langmuir model; SPR kinetic analysis, Fab over biotinylated CXCL12 on streptavidin chip
Description: as §1, §2

T1 sequence (P48061 22-89 limits assumed): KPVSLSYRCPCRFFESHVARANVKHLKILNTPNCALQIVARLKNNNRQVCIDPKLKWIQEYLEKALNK
Sequence of human CXCL12 (soluble ligand in the cell migration assays) (P48061 22-89 limits assumed): as above

fold improvement in affinity following light chain shuffling (against its parent clone) [2]: 4.5 fold
Kd [3]: 4.2 nM
Kd [4]: 3.7 nM
ka 1 [5]: 510000 M⁻¹ s⁻¹
kd 1 [5]: 0.04 s⁻¹
ka 2 [6]: 0.015 s⁻¹
kd 2 [6]: 0.00079 s⁻¹
B2: 113_1H12 Fab (Fab, V domains shown)
VH: EVQLVQSGAEVKKPGASVKVSCKTSGYTFTNYGISWVRQAPGQGLEWMGWISAYNGNTNYAQKLQGRVTMTTDTSTSTAYMELRSLRSDDTAVYYCARAGGVYYDYFTDYWGQGTMVTVSS
VL: QSELTQPPSASGTPGQRVTISCSGSRSNIGSNSVNWYQQLPGTAPKLLIYNNDERPSGVPDRFSGSKSGTSASLAISGLQSEDEADYFCAAWDDSLNVGELFGGGTKLTVLG
notes: Fab expressed from pBIOCAM-7 in HEK-293F cells, with hexa-histidine and tri-FLAG tags

fold improvement in affinity from its parent clone 093_2D06 [7]: 3800 fold
Kd [3]: 2.4 nM
kon [8]: 490000 M⁻¹ s⁻¹
koff [9]: 0.00051 s⁻¹
Kd [10]: 1 nM
B4: 114_3H1 Fab (Fab, V domains shown)
VH: QVQLVQSGAEVKKPGASVKVSCKVSGYTLTELSMHWVRQAPGKGLEWMGGFDPEDGETIYAQKFQGRVTMTEDTSTDTAYMELSSLGSEDTAVYYCARRVWGSYRPNDAFDIWGQGTLVTVSS
VL: DIQMTQSPSSLSASVGDRVTITCRASQSISDYVNWYQQKPGKAPNLLMFAASTSQSGVPSRFTGSGSGTDFTLTISSLQPEDFATYFCQQSYSPPYTFGQGTKVEIKR
notes: as for B2

The next lines start with the binder.

B1: 113_1H12 in a human IgG2 format (antibody, V domains shown)
VH: EVQLVQSGAEVKKPGASVKVSCKTSGYTFTNYGISWVRQAPGQGLEWMGWISAYNGNTNYAQKLQGRVTMTTDTSTSTAYMELRSLRSDDTAVYYCARAGGVYYDYFTDYWGQGTMVTVSS
VL: QSELTQPPSASGTPGQRVTISCSGSRSNIGSNSVNWYQQLPGTAPKLLIYNNDERPSGVPDRFSGSKSGTSASLAISGLQSEDEADYFCAAWDDSLNVGELFGGGTKLTVLG
IC50, transwell migration of TOV-21G cells towards CXCL12 (further replicate experiments) [1]: 9 nM

B3: 114_3H1 IgG (human IgG2) (antibody, V domains shown)
VH: QVQLVQSGAEVKKPGASVKVSCKVSGYTLTELSMHWVRQAPGKGLEWMGGFDPEDGETIYAQKFQGRVTMTEDTSTDTAYMELSSLGSEDTAVYYCARRVWGSYRPNDAFDIWGQGTLVTVSS
VL: DIQMTQSPSSLSASVGDRVTITCRASQSISDYVNWYQQKPGKAPNLLMFAASTSQSGVPSRFTGSGSGTDFTLTISSLQPEDFATYFCQQSYSPPYTFGQGTKVEIKR
IC50, transwell migration of TOV-21G cells towards CXCL12 (further replicate experiments) [1]: 5 nM
